In article PMC12102759 (2025) one finds screen value data, which are given here for 56 variants.

The labels stand for the following.
B1: ATXN2 peptide 913-928 (Ataxin-2), 16-mer library wild type / PABPC1 PABC (PABPC1 PABC domain, residues 544-623) (parent complex)
chain 1: TLNPNAKEFNPRSFSQ
chain 2: PLTASMLASAPPQEQKQMLGERLFPLIQAMHPTLAGKITGMLLEIDNSELLHMLESPESLRSKVDEAVAVLQAHQAKEAA

In the assay the parent is B1. The assay can be described thus: proteomic peptide phage display deep mutational scan (ProP-PD DMS): M13 P8 16-mer library selected against immobilised GST-tagged bait for four days (rounds), NGS of the eluted pools per day and pseudo-replica; bait immobilised on MaxiSorp plates (10 µg), library pre-cleared on GST, 2 h binding at 4 °C, five washes; one round per day, days 1-4; value from days 2 and 3.
As to chain 1 TLQPNAKEFNPRSFSQ, the screen value was 0.00023 average fractional NGS count over selection days 2 and 3 (reads of this peptide / all reads for the bait, averaged over ….
On to chain 1 TLDPNAKEFNPRSFSQ, for which the screen value was 0.00069 average fractional NGS count over selection days 2 and 3 (reads of this peptide / all reads for the bait, averaged over ….
As to chain 1 TLNPNAKEFNPRSVSQ, the screen value was 0.00125 average fractional NGS count over selection days 2 and 3 (reads of this peptide / all reads for the bait, averaged over ….
Turning to chain 1 TLNPNAKEFNPRSESQ, the screen value was 0.000387 average fractional NGS count over selection days 2 and 3 (reads of this peptide / all reads for the bait, averaged over ….
Consider chain 1 TLNPNAKEFNPRSPSQ, for which the screen value was 0.00134 average fractional NGS count over selection days 2 and 3 (reads of this peptide / all reads for the bait, averaged over ….
For the variant chain 1 TLNPNAKEFNPRSNSQ, the screen value is 0.00127 average fractional NGS count over selection days 2 and 3 (reads of this peptide / all reads for the bait, averaged over ….
With chain 1 ILNPNAKEFNPRSFSQ, the screen value is 0.000134 average fractional NGS count over selection days 2 and 3 (reads of this peptide / all reads for the bait, averaged over ….
As to chain 1 HLNPNAKEFNPRSFSQ, the screen value was 0.000542 average fractional NGS count over selection days 2 and 3 (reads of this peptide / all reads for the bait, averaged over ….
Regarding chain 1 DLNPNAKEFNPRSFSQ, the screen value is 0.00327 average fractional NGS count over selection days 2 and 3 (reads of this peptide / all reads for the bait, averaged over ….
As to chain 1 NLNPNAKEFNPRSFSQ, the screen value was 0.000793 average fractional NGS count over selection days 2 and 3 (reads of this peptide / all reads for the bait, averaged over ….
Regarding chain 1 LLNPNAKEFNPRSFSQ, the screen value was 0.0036 average fractional NGS count over selection days 2 and 3 (reads of this peptide / all reads for the bait, averaged over ….
On to chain 1 RLNPNAKEFNPRSFSQ, for which the screen value was 0.00254 average fractional NGS count over selection days 2 and 3 (reads of this peptide / all reads for the bait, averaged over ….
chain 1 MLNPNAKEFNPRSFSQ: the screen value was 0.000194 average fractional NGS count over selection days 2 and 3 (reads of this peptide / all reads for the bait, averaged over ….
Then chain 1 YLNPNAKEFNPRSFSQ, with 0.0102 average fractional NGS count over selection days 2 and 3 (reads of this peptide / all reads for the bait, averaged over …; and chain 1 TLNPNAKEFQPRSFSQ, with 0.00128 average fractional NGS count over selection days 2 and 3 (reads of this peptide / all reads for the bait, averaged over ….
As for chain 1 TLNPNAKEFDPRSFSQ, the figure is 0.0012 average fractional NGS count over selection days 2 and 3 (reads of this peptide / all reads for the bait, averaged over …; as for chain 1 TLNPNAKEFWPRSFSQ, 0.000811 average fractional NGS count over selection days 2 and 3 (reads of this peptide / all reads for the bait, averaged over ….
With chain 1 TLNPNAKEFHPRSFSQ, the screen value is 0.000309 average fractional NGS count over selection days 2 and 3 (reads of this peptide / all reads for the bait, averaged over ….
Regarding chain 1 TLNPNAKEFLPRSFSQ, the screen value is 0.00266 average fractional NGS count over selection days 2 and 3 (reads of this peptide / all reads for the bait, averaged over ….
For chain 1 TLNPNAKEFSPRSFSQ, the screen value is 0.000422 average fractional NGS count over selection days 2 and 3 (reads of this peptide / all reads for the bait, averaged over ….
Take chain 1 TLNPNAKEFTPRSFSQ: the screen value is 0.00052 average fractional NGS count over selection days 2 and 3 (reads of this peptide / all reads for the bait, averaged over ….
Then chain 1 TLNVNAKEFNPRSFSQ, with 0.00399 average fractional NGS count over selection days 2 and 3 (reads of this peptide / all reads for the bait, averaged over ….
For the variant chain 1 TLNHNAKEFNPRSFSQ, the screen value is 0.000277 average fractional NGS count over selection days 2 and 3 (reads of this peptide / all reads for the bait, averaged over ….
In the case of chain 1 TLNTNAKEFNPRSFSQ, the screen value is 0.000273 average fractional NGS count over selection days 2 and 3 (reads of this peptide / all reads for the bait, averaged over ….
Then chain 1 TLNPNAKEWNPRSFSQ, with 0.00363 average fractional NGS count over selection days 2 and 3 (reads of this peptide / all reads for the bait, averaged over …; and chain 1 TLNPNAKEFNPRSFGQ, with 0.00895 average fractional NGS count over selection days 2 and 3 (reads of this peptide / all reads for the bait, averaged over ….
For the variant chain 1 TLNPNAKEFNPRSFAQ, the screen value is 0.000937 average fractional NGS count over selection days 2 and 3 (reads of this peptide / all reads for the bait, averaged over ….
As for chain 1 TLNPNAKEFNPRSFQQ, the screen value was 0.000598 average fractional NGS count over selection days 2 and 3 (reads of this peptide / all reads for the bait, averaged over ….
On to chain 1 TLNPNAKEFNPRSFMQ, for which the screen value was 0.00397 average fractional NGS count over selection days 2 and 3 (reads of this peptide / all reads for the bait, averaged over ….
For the variant chain 1 TLNPNAKEFNPRSFEQ, the screen value was 0.00372 average fractional NGS count over selection days 2 and 3 (reads of this peptide / all reads for the bait, averaged over ….
As for chain 1 TLNPNAKEFNPRSFWQ, the figure is 0.00221 average fractional NGS count over selection days 2 and 3 (reads of this peptide / all reads for the bait, averaged over …; as for chain 1 TLNPNAKEFNPRSFFQ, 0.000374 average fractional NGS count over selection days 2 and 3 (reads of this peptide / all reads for the bait, averaged over ….
Then chain 1 TLNPNAKEFNPRSFVQ, with 0.000359 average fractional NGS count over selection days 2 and 3 (reads of this peptide / all reads for the bait, averaged over …; and chain 1 TLNPNAKEFNPRSFRQ, with 0.000394 average fractional NGS count over selection days 2 and 3 (reads of this peptide / all reads for the bait, averaged over ….
For chain 1 TLNPNAKEFNPRSFDQ, the screen value is 0.000508 average fractional NGS count over selection days 2 and 3 (reads of this peptide / all reads for the bait, averaged over ….
As for chain 1 TWNPNAKEFNPRSFSQ, the figure is 0.000443 average fractional NGS count over selection days 2 and 3 (reads of this peptide / all reads for the bait, averaged over …; as for chain 1 TFNPNAKEFNPRSFSQ, 0.000314 average fractional NGS count over selection days 2 and 3 (reads of this peptide / all reads for the bait, averaged over ….
On to chain 1 TYNPNAKEFNPRSFSQ, for which the screen value was 0.000336 average fractional NGS count over selection days 2 and 3 (reads of this peptide / all reads for the bait, averaged over ….
For the variant chain 1 TMNPNAKEFNPRSFSQ, the screen value was 0.000384 average fractional NGS count over selection days 2 and 3 (reads of this peptide / all reads for the bait, averaged over ….
As for chain 1 TLNPNAKTFNPRSFSQ, the screen value is 0.00103 average fractional NGS count over selection days 2 and 3 (reads of this peptide / all reads for the bait, averaged over ….
As for chain 1 TLNPNAKSFNPRSFSQ, the figure is 0.00107 average fractional NGS count over selection days 2 and 3 (reads of this peptide / all reads for the bait, averaged over …; as for chain 1 TLNPNAKHFNPRSFSQ, 0.00041 average fractional NGS count over selection days 2 and 3 (reads of this peptide / all reads for the bait, averaged over …; as for chain 1 TLNPNAKYFNPRSFSQ, 0.000547 average fractional NGS count over selection days 2 and 3 (reads of this peptide / all reads for the bait, averaged over ….
As for chain 1 TLNPNAKNFNPRSFSQ, the figure is 0.00138 average fractional NGS count over selection days 2 and 3 (reads of this peptide / all reads for the bait, averaged over ….
Take chain 1 TLNPNAKMFNPRSFSQ: the screen value is 0.00043 average fractional NGS count over selection days 2 and 3 (reads of this peptide / all reads for the bait, averaged over ….
For chain 1 TLNPNAKQFNPRSFSQ, the screen value was 0.000543 average fractional NGS count over selection days 2 and 3 (reads of this peptide / all reads for the bait, averaged over ….
With chain 1 TLNPNAKVFNPRSFSQ, the screen value was 0.00108 average fractional NGS count over selection days 2 and 3 (reads of this peptide / all reads for the bait, averaged over ….
For the variant chain 1 TLNPNAKEFNDRSFSQ, the screen value was 8.69e-05 average fractional NGS count over selection days 2 and 3 (reads of this peptide / all reads for the bait, averaged over ….
With chain 1 TLNPNAKEFNHRSFSQ, the screen value was 0.00248 average fractional NGS count over selection days 2 and 3 (reads of this peptide / all reads for the bait, averaged over ….
On to chain 1 TLNPNAKEFNLRSFSQ, for which the screen value is 0.000381 average fractional NGS count over selection days 2 and 3 (reads of this peptide / all reads for the bait, averaged over ….
Consider chain 1 TLNPNAKEFNTRSFSQ, for which the screen value is 0.00444 average fractional NGS count over selection days 2 and 3 (reads of this peptide / all reads for the bait, averaged over ….
Turning to chain 1 TLNPNAKEFNVRSFSQ, the screen value was 0.00178 average fractional NGS count over selection days 2 and 3 (reads of this peptide / all reads for the bait, averaged over ….
With chain 1 TLNPNAKEFNGRSFSQ, the screen value is 0.000676 average fractional NGS count over selection days 2 and 3 (reads of this peptide / all reads for the bait, averaged over ….
In the case of chain 1 TLNPNAAEFNPRSFSQ, the screen value was 0.0221 average fractional NGS count over selection days 2 and 3 (reads of this peptide / all reads for the bait, averaged over ….
As to chain 1 TLNPNAQEFNPRSFSQ, the screen value was 0.000831 average fractional NGS count over selection days 2 and 3 (reads of this peptide / all reads for the bait, averaged over ….
Take chain 1 TLNPNAWEFNPRSFSQ: the screen value was 0.00309 average fractional NGS count over selection days 2 and 3 (reads of this peptide / all reads for the bait, averaged over ….
